Results from patent publication US20120093805A1 (Kyowa Kirin, published 2012).

T1: human sugar chain-deficient CD27 expressed on Lec8 cells (human, UniProt P26842 20-260, O-linked sugar chains to which galactose is not bound, from expression in Lec8 cells)
T1 construct: CD27/Lec8-4 and CD27/Lec8-M19 are two clones that carry the same protein; also called CD27/Lec8-4; CD27/Lec8-M19
T1 sequence: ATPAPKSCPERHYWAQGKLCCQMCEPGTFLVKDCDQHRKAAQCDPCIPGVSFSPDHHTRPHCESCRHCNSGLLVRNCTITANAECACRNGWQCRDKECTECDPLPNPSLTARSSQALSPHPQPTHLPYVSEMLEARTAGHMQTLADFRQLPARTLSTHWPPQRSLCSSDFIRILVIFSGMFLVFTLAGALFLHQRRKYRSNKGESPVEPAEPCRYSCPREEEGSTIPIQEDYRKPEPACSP


Assays:
[1] = molecular target: T1, human sugar chain-deficient CD27 …; assay: flow cytometry (FCM) on CD27/Lec8-M19 cells [A]
Description: Reaction specificity of the anti-sugar chain-deficient CD27 humanized antibody was measured in the same manner as in Example 7(2). Regarding the cell lines, the CD27/DG44-4 cell and CD27/Lec8-M19 cell having almost the same antigen expression quantity, prepared by the same method of Example 2, were used as assaying cells.

[2] = molecular target: T1, human sugar chain-deficient CD27 …; assay: flow cytometry (FCM) on CD27/Lec8-4 cells [A) (a]
Description: The CD27/DG44-4, CD27/Lec8-4 and Lec8 cells constructed in the same manner as in Example 2 were used as assay cells. The CD27/DG44-4 subcultured in an HT-medium supplemented with 500 μg/mL of G418, and the CD27/Lec8-4 subcultured in an HT-medium supplemented with 50 nmol/L of MTX and 500 μg/mL of G418 were peeled off using a 0.02% EDTA solution, and then washed with PBS.
After the reaction was complete, centrifugation was carried out twice with PBS, and ALEXA Fluoro 488-labeled anti-human immunoglobulin G(H+L), ALEXA Fluoro 488-labeled anti-mouse immunoglobulin G(H+L) or ALEXA Fluoro 488-labeled anti-human immunoglobulin M(μ) as a secondary antibody was added at a concentration of 50 μL/well, followed by reaction at ice temperature under shading for 30 minutes.
Again, centrifugation was repeated twice using PBS, and the cells were washed and suspended in 500 μL of 1% BSA-PBS. The fluorescence of 510 to 530 nm excited with a 488 nm argon laser was measured by a flow cytometer (manufactured by Beckman Coulter, Cytomics FC500 MPL).

[3] = molecular target: T2, Lec8-produced CD27-Fc (human sugar chain-deficient CD27-Fc) (human, O-linked sugar chains to which galactose is not bound (Tn antigen), from production in Lec8 cells); assay: SPR, BIACORE T100, as in Example 7(1): Lec8-derived CD27-Fc on CM5 chip, antibody as analyte, bivalent analyte model
T2 construct: also called Lec8-derived CD27-Fc
Description: In order to analyze binding activity of anti-sugar chain-deficient CD27 humanized antibody to human sugar chain-deficient CD27 reaction kinetically, it was measured in the same manner as in Example 7(1) using BIACORE T100 (manufactured by BIACORE).

[4] = molecular target: T2, Lec8-produced CD27-Fc (human sugar …); assay: SPR, Biacore T100; Lec8-derived CD27-Fc amine-coupled to CM5 chip, antibody as analyte, single-cycle kinetics, bivalent analyte model
Description: In order to kinetically analyze the binding activity of the anti-sugar chain-deficient CD27 chimeric antibodies chimeric KM4026, chimeric KM4028, and chimeric KM4030 to the human sugar chain-deficient CD27-Fc, the binding activity was measured by surface plasmon resonance method (SPR method). All of the following manipulations were carried out using Biacore T100 (manufactured by GE Healthcare Bio-Sciences).
The Lec8-derived CD27-Fc obtained in Example 1(7) was immobilized on a CM5 sensor chip (manufactured by GE Healthcare Bio-Sciences) by amine coupling. Assay samples (chimeric KM4026, chimeric KM4028, chimeric KM4030 and chimeric KM4031), which were serially 3-fold diluted from 9 μg/mL to give 5 different concentrations, were sequentially and continuously added to the CD27-Fc-immobilized chip in order of increasing concentrations, in accordance with an automated program (Single Kinetix), followed by measurement.
Using the analysis software, Biacore T100 Evaluation software (manufactured by Biacore) installed on the apparatus, the analysis was carried out using Bivalent Analyte Model to calculate thereby an association rate constant ka and a dissociation rate constant kd of each antibody for the human sugar chain-deficient CD27-Fc.

[5] = molecular target: T3, sugar chain-deficient cynomolgus CD27 (C-terminal His tag) expressed on Lec8 cells (cynomolgus); assay: flow cytometry (FCM) on cynomolgus CD27/Lec8 cells (Example 11(5)) [A]
T3 construct: whole, on cells; also called cynomolgus CD27/Lec8 cell; sugar chain-deficient cynomolgus CD27 cell
Description: Binding activity of the anti-sugar chain-deficient CD27 humanized antibodies HV0LV0, HV5LV0 and HV7LV0 for cynomolgus CD27 expression cells was measured by a fluorescent cell staining method (cytometer analysis) in the same manner as in Example 9(1). The cynomolgus CD27/DG44 cell and cynomolgus CD27/Lec8 cell prepared in Example 8 were used as the cynomolgus CD27 expression cells.

Binder	Kd [4] [nM]	koff [4] [s⁻¹]	kon [4] [M⁻¹ s⁻¹]	EC50 (read off the curve) [5] [µg/mL]	further results
anti-sugar chain-deficient CD27 chimeric antibody chimeric KM4030 (antibody, human IgG1, V domains shown, made in FUT8 knockout CHO cells, no core fucose; also called anti-sugar chain-deficient CD27 chimeric antibody KM4030) VH: EVQLVESGGGLVQPGRSLKLSCVASGFTFNNYWMTWIRQAPGKGLEWIASITNSGGSTYYPDSVKGRFTISRDNAKGTLYLQMNSLRSEDTATYYCTRDVNTYYGYNALFDYWGQGVMVTVSS VL: DIQMTQSPSVLSASVGDRVTLNCKASQNINEYLNWYQQKLGEAPKLLIYNTNNLQTGIPSRFSGSGSGTDFTLTISSLQPEDFAAYFCFQHNSWPYTFGAGTKLELK	1.07	0.00034	290000	–	EC50 (read off the curve) [1]: ~0.2 µg/mL; EC50 (read off the curve) [2]: ~0.1 µg/mL; Kd [3]: 1.1 nM; koff [3]: 0.00082 s⁻¹; kon [3]: 740000 M⁻¹ s⁻¹
anti-sugar chain-deficient CD27 humanized antibody HV5LV0 (antibody, human IgG1, V domains shown) VH: EVQLVESGGGLVKPGRSLRLSCAASGFTFNNYWMTWIRQAPGKGLEWIASITNSGGSTYYPDSVKGRFTISRDNAKGSLYLQMNSLRAEDTAVYYCTRDVNTYYGYNALFDYWGLGTLVTVSS VL: DIQMTQSPSSLSASVGDRVTITCKASQNINEYLNWYQQKPGKAPKLLIYNTNNLQTGVPSRFSGSGSGTDFTLTISSLQPEDFATYYCFQHNSWPYTFGQGTKLEIK	–	–	–	~0.2	–

Continued, in another order:

Kd [4] [nM]	koff [4] [s⁻¹]	kon [4] [M⁻¹ s⁻¹]	EC50 (read off the curve) [5] [µg/mL]	Binder	further results
–	–	–	~0.2	anti-sugar chain-deficient CD27 humanized antibody HV0LV0 (antibody, human IgG1, V domains shown) VH: EVQLVESGGGLVKPGRSLRLSCAASGFTFSNYWMTWIRQAPGKGLEWVSSITNSGGSTYYPDSVKGRFTISRDNAKNSLYLQMNSLRAEDTAVYYCARDVNTYYGYNALFDYWGLGTLVTVSS VL: DIQMTQSPSSLSASVGDRVTITCKASQNINEYLNWYQQKPGKAPKLLIYNTNNLQTGVPSRFSGSGSGTDFTLTISSLQPEDFATYYCFQHNSWPYTFGQGTKLEIK	–
–	–	–	~0.2	anti-sugar chain-deficient CD27 humanized antibody HV7LV0 (antibody, human IgG1, V domains shown) VH: EVQLVESGGGLVKPGRSLRLSCAASGFTFNNYWMTWIRQAPGKGLEWIASITNSGGSTYYPDSVKGRFTISRDNAKGSLYLQMNSLRAEDTATYYCTRDVNTYYGYNALFDYWGLGVLVTVSS VL: DIQMTQSPSSLSASVGDRVTITCKASQNINEYLNWYQQKPGKAPKLLIYNTNNLQTGVPSRFSGSGSGTDFTLTISSLQPEDFATYYCFQHNSWPYTFGQGTKLEIK	–
0.51	0.0002	400000	–	anti-sugar chain-deficient CD27 chimeric antibody chimeric KM4031 (antibody, human IgG1, V domains shown, made in FUT8 knockout CHO cells, no core fucose; also called chimeric KM403I) VH: EVQLVESGGGLVEPGRSMKLSCAASGFTFSDYGMAWVRQAPTKGLEWVATITYDGSIYYRDSVKGRFTISRDNAKSTLYLQMNSLRSEDTATYYCTRDPGLYYFDFWGQGVMVTVSS VL: DIVMTQSPSSLAVSAGETVTLNCQSSQSLLYSGNQKNYLAWYQQKPGQSPKLLIYWASTRQSGVPDRFIGSGSGTDFTLTISSVQAEDLAIYYCQQYYNTPRTFGGGTKLELK	–
